Experimental data taken from patent US20140271699A1 (US Dept. of Health and Human Services, published 2014).

Target: RSV F glycoprotein as expressed by RSV (on RSV-infected HEp-2 cells / on virus) (RSV (strain  for this assay), UniProt P03420 26-109; P03420 137-574)
Assay: cell-based or functional assay

Chain of RSV F glycoprotein as expressed by RSV (on RSV-infected HEp-2 cells / on virus) (P03420 26-109, chain 1 of 2): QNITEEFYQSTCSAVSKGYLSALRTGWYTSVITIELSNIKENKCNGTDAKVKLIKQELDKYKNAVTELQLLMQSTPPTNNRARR
Chain of RSV F glycoprotein as expressed by RSV (on RSV-infected HEp-2 cells / on virus) (P03420 137-574, chain 2 of 2): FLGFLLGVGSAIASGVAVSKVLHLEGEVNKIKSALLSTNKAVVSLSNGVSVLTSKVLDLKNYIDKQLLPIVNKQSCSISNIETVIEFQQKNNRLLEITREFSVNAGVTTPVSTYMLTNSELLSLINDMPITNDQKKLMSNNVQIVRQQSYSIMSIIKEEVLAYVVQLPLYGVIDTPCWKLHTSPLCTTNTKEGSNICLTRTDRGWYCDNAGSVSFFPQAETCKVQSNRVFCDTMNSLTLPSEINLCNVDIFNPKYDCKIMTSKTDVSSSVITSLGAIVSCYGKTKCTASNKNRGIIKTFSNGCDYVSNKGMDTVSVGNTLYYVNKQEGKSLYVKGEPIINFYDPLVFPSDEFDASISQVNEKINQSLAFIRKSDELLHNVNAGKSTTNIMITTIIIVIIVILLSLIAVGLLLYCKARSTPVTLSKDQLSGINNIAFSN

B1: AM22 antibody (antibody, V domains shown)
VH: QVQLVQSGAEVKKPGATVKVSCKISGHTLIKLSIHWVRQAPGKGLEWMGGYEGEVDEIFYAQKFQHRLTVIADTATDTVYMELGRLTSDDTAVYFCGTLGVTVTEAGLGIDDYWGQGTLVTVSS
VL: EIVLTQSPGTLSLSPGERATLSCRASQIVSRNHLAWYQQKPGQAPRLLIFGASSRATGIPVRFSGSGSGTDFTLTINGLAPEDFAVYYCLSSDSSIFTFGPGTKVDFKR
- RSV neutralization (flow cytometry, RSV-GFP on HEp-2 cells), potency relative to palivizumab: ~50 fold
